B1: DLC1 (parent)
chain: NDDSADYQHFLQDCVDGLFKEVKE
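Note: lentivirally expressed fusions sorted by FACS into six bins by GFP to DsRed ratio, PSI derived from sequencing read proportions per bin multiplied by bin number.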

The variants in this data set derive from B1. Briefly: protein stability index of a GFP-peptide fusion (GPS, HEK-293T) (PSI 1-6); higher = more stable. Conditions: c terminus: a fixed tail appended.
On to NDDSADYQHFLQDCVDGLFKEVKA [E24A], for which the protein stability index came to 2.17.

With NDDSADYQHFLQDCVDGLFKEVKR [E24R], the protein stability index is 2.01.

Regarding NDDSADYQHFLQDCVDGLFKEVKH [E24H], the protein stability index stood at 1.88.

Take NDDSADYQHFLQDCVDGLFKEVKF [E24F]: the protein stability index came to 2.11.

For the variant NDDSADYQHFLQDCVDGLFKEVKY [E24Y], the protein stability index is 1.66.

Turning to NDDSADYQHFLQDCVDGLFKEVKW [E24W], the protein stability index was found to be 1.67.

In the case of NDDSADYQHFLQDCVDGLFKEVKN [E24N], the protein stability index was determined as 2.5.

Consider NDDSADYQHFLQDCVDGLFKEVKS [E24S], for which the protein stability index worked out at 1.91.

On to NDDSADYQHWLQDCVDGLFKEVKE [F10W], for which the protein stability index is 1.98.

For NDDSADYQHPLQDCVDGLFKEVKE [F10P], the protein stability index came to 4.36.

Turning to NDDSADYQHHLQDCVDGLFKEVKE [F10H], the protein stability index is 4.34.

For NDDSADYQHALQDCVDGLFKEVKE [F10A], the protein stability index worked out at 2.08.

As for NDDSADYQHGLQDCVDGLFKEVKE [F10G], the protein stability index is 4.53.

As to NDDSADYQHFLQDCVIGLFKEVKE [D16I], the protein stability index came out at 1.49.

On to NDDSADYQHFLQDCVYGLFKEVKE [D16Y], for which the protein stability index stood at 2.21.

Turning to NDDSADYQHFLQDCVHGLFKEVKE [D16H], the protein stability index was found to be 3.44.

For the variant NDDSADYQHFLQDCVKGLFKEVKE [D16K], the protein stability index was found to be 2.56.

NDDSADYQHFLQDCVAGLFKEVKE [D16A]: the protein stability index was found to be 2.08.

As for NDDSADYQHFLQDCVEGLFKEVKE [D16E], the protein stability index was 2.08.

NGDSADYQHFLQDCVDGLFKEVKE [D2G]: the protein stability index is 4.54.

Turning to NIDSADYQHFLQDCVDGLFKEVKE [D2I], the protein stability index worked out at 2.18.

For the variant NFDSADYQHFLQDCVDGLFKEVKE [D2F], the protein stability index turned out to be 2.47.

On to NVDSADYQHFLQDCVDGLFKEVKE [D2V], for which the protein stability index was 1.96.

For NDDSADYQHFLNDCVDGLFKEVKE [Q12N], the protein stability index came to 4.24.

Take NDDSADYQHFLVDCVDGLFKEVKE [Q12V]: the protein stability index came out at 3.33.

As to NDDSADYQHFLIDCVDGLFKEVKE [Q12I], the protein stability index is 3.

Take NDDSADYQHFLGDCVDGLFKEVKE [Q12G]: the protein stability index came to 4.34.

In the case of NDDSADYQHFLTDCVDGLFKEVKE [Q12T], the protein stability index was 4.32.

Turning to NDDSADYQHFLEDCVDGLFKEVKE [Q12E], the protein stability index worked out at 4.75.

In the case of NDDSADYQHFLHDCVDGLFKEVKE [Q12H], the protein stability index is 3.17.

As to NDDSADYQHFLDDCVDGLFKEVKE [Q12D], the protein stability index was 4.83.

Take NDDSADYQHFLQDCVDGLFKEVWE [K23W]: the protein stability index was 2.66.

Regarding NDDSADYQHFLQDCVDGLFKEVEE [K23E], the protein stability index amounted to 3.72.

NDDSADYQHFLQDCVDGLFKEVME [K23M]: the protein stability index was 2.01.

On to NDDSADYQHFLQDCVDGLFKEVFE [K23F], for which the protein stability index came out at 2.83.

As for NDDSADYQHFLQDCVDGLFKEVIE [K23I], the protein stability index was 1.9.

With NDDSADYQHFLQDCVDGLFKEVQE [K23Q], the protein stability index was 2.75.

For NDDSADYQHFLQDCVDGLFKEVRE [K23R], the protein stability index amounted to 2.57.

As to NDDSADYQHFLQKCVDGLFKEVKE [D13K], the protein stability index was determined as 2.05.

Turning to NDDSADYQHFLQYCVDGLFKEVKE [D13Y], the protein stability index was found to be 2.14.

Take NDDSADYQHFLQLCVDGLFKEVKE [D13L]: the protein stability index came out at 1.76.

As to NDDSADYQHFLQICVDGLFKEVKE [D13I], the protein stability index amounted to 1.84.

In the case of NDDSADYQHFLQACVDGLFKEVKE [D13A], the protein stability index came to 1.79.

On to NDDSADYQHFLQECVDGLFKEVKE [D13E], for which the protein stability index came to 2.66.

For the variant NDDSADYQHFLQPCVDGLFKEVKE [D13P], the protein stability index was determined as 2.27.

With NDDSADYQHFLQHCVDGLFKEVKE [D13H], the protein stability index worked out at 1.51.

NDDSADYQHFLQVCVDGLFKEVKE [D13V]: the protein stability index worked out at 1.56.

For NDDSADYQHFLQSCVDGLFKEVKE [D13S], the protein stability index was 2.2.

Take NDDSADYQHFLQGCVDGLFKEVKE [D13G]: the protein stability index was 2.42.

As for NDDSADYQHFLQRCVDGLFKEVKE [D13R], the protein stability index is 2.02.

As for NDDSADYQHFLQCCVDGLFKEVKE [D13C], the protein stability index stood at 2.09.

In the case of NDDSADYQHFLQFCVDGLFKEVKE [D13F], the protein stability index was determined as 1.86.

On to NDDSADYQHFLQDCVDGLFKEGKE [V22G], for which the protein stability index turned out to be 5.01.

In the case of NDDSADYQHFLQDCVDGLFKEYKE [V22Y], the protein stability index is 4.05.

Turning to NDDSADYQHFLQDCVDGLFKEEKE [V22E], the protein stability index was 5.42.

Consider NDDSADYQHFLQDCVDGLFKECKE [V22C], for which the protein stability index is 4.3.

As for NDDSADYQHFLQDCVDGLFKETKE [V22T], the protein stability index was determined as 4.87.

With NDDSADYQHFLQDCVDGLFKEPKE [V22P], the protein stability index is 4.26.

As to NDDYADYQHFLQDCVDGLFKEVKE [S4Y], the protein stability index worked out at 2.22.

With NDDIADYQHFLQDCVDGLFKEVKE [S4I], the protein stability index was 2.

NDDNADYQHFLQDCVDGLFKEVKE [S4N]: the protein stability index amounted to 2.57.

As for NDDAADYQHFLQDCVDGLFKEVKE [S4A], the protein stability index was determined as 2.35.

Consider NDDDADYQHFLQDCVDGLFKEVKE [S4D], for which the protein stability index came to 2.9.

With NDDEADYQHFLQDCVDGLFKEVKE [S4E], the protein stability index is 1.63.

As for NDDPADYQHFLQDCVDGLFKEVKE [S4P], the protein stability index was 2.34.

Consider NDDSADYKHFLQDCVDGLFKEVKE [Q8K], for which the protein stability index is 2.1.

For the variant NDDSADYWHFLQDCVDGLFKEVKE [Q8W], the protein stability index is 3.5.

Turning to NDDSADYAHFLQDCVDGLFKEVKE [Q8A], the protein stability index turned out to be 2.4.

As for NDDSADYCHFLQDCVDGLFKEVKE [Q8C], the protein stability index came to 1.69.

On to NDDSADYGHFLQDCVDGLFKEVKE [Q8G], for which the protein stability index worked out at 2.75.

As to NDDSADYMHFLQDCVDGLFKEVKE [Q8M], the protein stability index is 1.43.

As for NDDSADYYHFLQDCVDGLFKEVKE [Q8Y], the protein stability index turned out to be 1.56.

NDDSADYQHFLQDCVDGLFKIVKE [E21I]: the protein stability index amounted to 3.01.

NDDSADYQHFLQDCVDGLFKAVKE [E21A]: the protein stability index amounted to 2.29.

Consider NDDSADYQHFLQDCVDGLFKMVKE [E21M], for which the protein stability index stood at 2.24.

As to NDDSADYQHFLQDCVDGLFKWVKE [E21W], the protein stability index worked out at 2.28.

NDDSADYQHFLQDCVDGLFKYVKE [E21Y]: the protein stability index turned out to be 2.03.

Turning to NDDSADYQHFLQDCVDGLFKQVKE [E21Q], the protein stability index came out at 2.74.

Turning to NDDSADYQHFLQDCVDGLFKDVKE [E21D], the protein stability index was determined as 4.67.

With NDDSADYQHFLQDCVDGLFKVVKE [E21V], the protein stability index worked out at 1.83.

In the case of NDDSADYQHFLQDCVDGLFNEVKE [K20N], the protein stability index was 3.08.

Take NDDSADYQHFLQDCVDGLFEEVKE [K20E]: the protein stability index amounted to 3.55.

As to NDDSADYQHFLQDCVDGLFQEVKE [K20Q], the protein stability index was 3.23.

As to NDDSADYQHFLQDCVDGLFMEVKE [K20M], the protein stability index was found to be 2.68.

As for NDDSADYQHFLQDCVDGLFLEVKE [K20L], the protein stability index turned out to be 2.87.

Turning to NDDSADYQHFLQDCVDGLFREVKE [K20R], the protein stability index is 2.51.

Regarding NDDSADYQHFLQDCVDGLFCEVKE [K20C], the protein stability index is 3.38.

For NDDSADYQHFLQDCVDGLFWEVKE [K20W], the protein stability index stood at 2.95.

Regarding NDDSADYQHFLQDCVDGLFTEVKE [K20T], the protein stability index is 4.

For NDCSADYQHFLQDCVDGLFKEVKE [D3C], the protein stability index amounted to 1.71.

For the variant NDYSADYQHFLQDCVDGLFKEVKE [D3Y], the protein stability index came to 2.24.

On to NDSSADYQHFLQDCVDGLFKEVKE [D3S], for which the protein stability index stood at 2.4.

For the variant NDMSADYQHFLQDCVDGLFKEVKE [D3M], the protein stability index turned out to be 2.26.

With NDWSADYQHFLQDCVDGLFKEVKE [D3W], the protein stability index is 1.71.

The values are drawn from the supplement of paper PMC10567573.
